# Experimental data reported in patent US20050021237A1, “Method and apparatus for evaluating new chemical entities” (priority 2003, published 2005).
# Legend:
# [1] = primates; cited from earlier work
# [2] = Phase I studies (Clinical Investigator's Brochure); assay type: in vivo, humans; conditions: from Phase I doses ranging from 12-48 μg/kg/hour (48/12)
# From the text: (§1) In the absence of more accurate TI data, this value is used in the example. LY203638 is classified as a cardiovascular agent (since there are no prior data for hematologic agents and it is not antimicrobial). The limitations in acquiring appropriate data for LY203638 underscores the requirement to have unfettered access to the NCE's data in order to optimize Pharminator's predictive accuracy.
# [3] = Toxicology studies in primates; assay type: in vivo; conditions: Phase I and primate toxicology data taken together
# From the text: as §1
substance,measurement,setting,value
Recombinant human activated protein C [LY203638],dose at which toxic effects observed,[1],8 mg/m^2/hour
same,no-observed-adverse-effect level,[1],2 mg/m^2/hour
same,therapeutic index (TI),[2],at least 4
same,therapeutic index (TI),[3],approximately 4
